Experimental data as given in paper PMC7060200, “Selective Binding of HSC70 and its Co-Chaperones to Structural Hotspots on CFTR” (Scientific Reports, 2020).

What was measured:
[1] = target: Fluorescent peptide FAM-1092-S (UniProt P13569); assay: other fluorescence titration; 0.5 μM FAM-1092-S with varying concentrations of chaperone, 45 min; HSC70 in buffer G, DJA1 and DJA2 in buffer H; excitation 492 nm, emission 520 nm; one site total binding fit
[2] = target: CFTR peptide 1097-L, biotinylated (library form) (UniProt P13569); assay: ELISA; titration of increasing concentrations of chaperone on immobilised biotinylated peptide; HSC70 with ATP; apparent Kd from linearised binding curves
[3] = target: DNAJA2 (DJA2), His-tagged (UniProt O60884); assay: ELISA; competition: 1 μM chaperone mixed with soluble peptide (titrated up to 100 μM, or fixed 100 μM in the screens) and bound to immobilised 1097-L; Kd of the competing peptide from linearised competition curves
DNAJA2 (DJA2), His-tagged (UniProt O60884), sequence (O60884 whole entry): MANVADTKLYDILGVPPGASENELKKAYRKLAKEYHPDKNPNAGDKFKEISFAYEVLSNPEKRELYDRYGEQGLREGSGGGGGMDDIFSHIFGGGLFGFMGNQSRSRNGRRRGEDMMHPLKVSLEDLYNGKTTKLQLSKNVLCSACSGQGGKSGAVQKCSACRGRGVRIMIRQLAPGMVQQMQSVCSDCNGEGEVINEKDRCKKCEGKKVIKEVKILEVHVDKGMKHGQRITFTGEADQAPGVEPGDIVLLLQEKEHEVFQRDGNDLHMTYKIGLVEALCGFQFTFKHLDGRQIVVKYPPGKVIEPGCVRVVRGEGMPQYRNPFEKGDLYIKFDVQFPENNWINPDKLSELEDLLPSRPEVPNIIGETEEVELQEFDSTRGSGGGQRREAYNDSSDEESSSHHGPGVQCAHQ

[4] = target: DNAJA1 (DJA1), His-tagged (UniProt P31689); assay: as above
[5] = target: HSC70 (HSPA8), His-tagged (UniProt P11142); assay: as above
HSC70 (HSPA8), His-tagged (UniProt P11142), sequence (P11142 whole entry): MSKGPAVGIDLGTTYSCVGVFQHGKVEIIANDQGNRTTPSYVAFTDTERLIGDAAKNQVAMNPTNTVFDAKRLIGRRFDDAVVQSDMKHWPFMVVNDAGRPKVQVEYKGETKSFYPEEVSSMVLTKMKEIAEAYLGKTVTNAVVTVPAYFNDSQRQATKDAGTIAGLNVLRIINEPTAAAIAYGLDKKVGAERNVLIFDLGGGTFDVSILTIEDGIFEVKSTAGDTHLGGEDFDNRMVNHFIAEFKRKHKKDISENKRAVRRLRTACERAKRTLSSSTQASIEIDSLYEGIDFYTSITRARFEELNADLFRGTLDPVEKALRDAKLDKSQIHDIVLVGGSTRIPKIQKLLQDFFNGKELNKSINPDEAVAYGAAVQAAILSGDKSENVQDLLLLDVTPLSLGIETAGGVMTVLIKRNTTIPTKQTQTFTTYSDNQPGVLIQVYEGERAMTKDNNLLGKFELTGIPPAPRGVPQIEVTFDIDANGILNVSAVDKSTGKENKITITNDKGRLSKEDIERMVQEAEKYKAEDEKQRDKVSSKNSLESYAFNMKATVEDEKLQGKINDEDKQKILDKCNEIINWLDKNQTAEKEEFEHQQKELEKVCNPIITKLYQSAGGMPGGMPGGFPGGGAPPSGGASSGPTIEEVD

Fluorescent peptide FAM-1092-S, sequence (P13569 whole entry, looked up, tested part not stated): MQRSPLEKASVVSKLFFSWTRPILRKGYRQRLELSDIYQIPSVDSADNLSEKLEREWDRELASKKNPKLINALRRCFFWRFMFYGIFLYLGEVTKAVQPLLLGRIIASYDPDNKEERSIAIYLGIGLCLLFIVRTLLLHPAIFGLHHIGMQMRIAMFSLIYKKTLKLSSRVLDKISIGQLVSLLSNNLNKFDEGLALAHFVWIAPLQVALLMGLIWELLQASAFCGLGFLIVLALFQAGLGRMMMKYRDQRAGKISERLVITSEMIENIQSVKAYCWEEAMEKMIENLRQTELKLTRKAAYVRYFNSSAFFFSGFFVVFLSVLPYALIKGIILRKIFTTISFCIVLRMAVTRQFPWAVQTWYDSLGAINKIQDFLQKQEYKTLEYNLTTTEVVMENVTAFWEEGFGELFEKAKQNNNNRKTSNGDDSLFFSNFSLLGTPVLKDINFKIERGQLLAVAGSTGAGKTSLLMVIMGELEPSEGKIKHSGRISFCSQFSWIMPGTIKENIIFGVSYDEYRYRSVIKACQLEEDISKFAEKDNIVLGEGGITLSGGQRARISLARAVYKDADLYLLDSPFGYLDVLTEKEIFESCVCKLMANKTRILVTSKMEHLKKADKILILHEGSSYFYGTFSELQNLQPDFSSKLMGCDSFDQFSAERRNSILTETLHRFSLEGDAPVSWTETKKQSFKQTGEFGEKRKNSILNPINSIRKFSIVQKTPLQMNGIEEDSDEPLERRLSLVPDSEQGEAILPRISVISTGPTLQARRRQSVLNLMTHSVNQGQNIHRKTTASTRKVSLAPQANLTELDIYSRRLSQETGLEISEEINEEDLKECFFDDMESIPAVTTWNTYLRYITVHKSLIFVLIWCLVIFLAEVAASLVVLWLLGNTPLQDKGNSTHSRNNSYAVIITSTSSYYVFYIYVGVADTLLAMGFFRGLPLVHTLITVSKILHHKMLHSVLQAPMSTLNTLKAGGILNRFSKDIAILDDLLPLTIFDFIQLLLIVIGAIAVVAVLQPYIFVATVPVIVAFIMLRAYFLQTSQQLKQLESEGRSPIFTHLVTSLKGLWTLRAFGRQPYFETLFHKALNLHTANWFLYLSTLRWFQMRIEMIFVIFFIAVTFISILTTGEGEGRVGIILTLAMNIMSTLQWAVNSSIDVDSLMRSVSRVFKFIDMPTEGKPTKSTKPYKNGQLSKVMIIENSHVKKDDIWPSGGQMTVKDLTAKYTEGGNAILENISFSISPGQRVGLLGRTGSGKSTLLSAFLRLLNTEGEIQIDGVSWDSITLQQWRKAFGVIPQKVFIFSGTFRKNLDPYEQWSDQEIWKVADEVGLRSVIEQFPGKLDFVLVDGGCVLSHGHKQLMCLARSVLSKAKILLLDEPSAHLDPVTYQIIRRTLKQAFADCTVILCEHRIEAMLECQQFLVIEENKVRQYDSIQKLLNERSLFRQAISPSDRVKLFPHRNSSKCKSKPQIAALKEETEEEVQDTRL
CFTR peptide 1092-S, sequence (P13569 whole entry, looked up, tested part not stated): as above
HSC70 (HSPA8), His-tagged (from UniProt P11142 1-646) (natural protein), sequence (P11142 whole entry): as the sequence (P11142 whole entry) above
DNAJA2 (DJA2), His-tagged (from UniProt O60884 1-412) (natural protein), sequence (O60884 whole entry): as the sequence (O60884 whole entry) above

| Substance | Kd [1] [nM] | Kd [2] [nM] | Kd [3] [nM] | Kd [4] [nM] | Kd [5] [nM] |
| --- | --- | --- | --- | --- | --- |
| DNAJA1 (DJA1), His-tagged (from UniProt P31689 1-397) (natural protein) | 3970 | 167 |  |  |  |
| CFTR peptide 1097-L, soluble unmodified (from UniProt P13569 1090-1104) |  |  | 585 | 2430 | 602 |
| CFTR peptide 1092-S (from UniProt P13569 1088-1096) |  |  | 2620 | 5470 | 1260 |

Second part, the substance after the results:

| Kd [1] [nM] | Kd [2] [nM] | Kd [3] [nM] | Kd [4] [nM] | Kd [5] [nM] | Substance |
| --- | --- | --- | --- | --- | --- |
| 8460 | 75 |  |  |  | DNAJA2 (DJA2), His-tagged (from UniProt O60884 1-412) (natural protein) |
| 6170 | 58 |  |  |  | HSC70 (HSPA8), His-tagged (from UniProt P11142 1-646) (natural protein) |
